The source of these data is patent CN115028713A (JIANGSU DONGKANG BIOMEDICAL TECH CO LTD, dated 2022).

Usually EC50 stands for the concentration that produces a half-maximal response.

The experiment deals with 重组新冠N蛋白 N-HIS6X (recombinant SARS-CoV-2 N protein with His6 tag) (SARS-CoV-2, UniProt P0DTC9 1-419).

B1: 单克隆抗体OP2 (anti-SARS-CoV-2 N protein monoclonal antibody OP2) (antibody, V domains shown)
VH: DVQLVESGGGLVQPGGSRKLSCAASGSTFSNFGMHWVRQAPEKGLEWVAYISSASSIIYYADTVKGRFTISRDNPKNTLFLQMTSLRSEDTAMYYCARSAMDYWGQGTSVTVSS
VL: DIVLTQSPASLAVSLGQRATISCKASQSVNYSGDSYMNWFQQKPGQPPKLLIYAASNLESGIPARFSGSGSGTDFTLNIHPVEEEDAATYYCQQSEEQPYTFGGGTKLEIK
notes: also called 抗N蛋白的抗体
For the molecule B1, the half-maximal effective concentration (EC50) is 0.0113 µg/mL.
